This is an account of results in article PMC3755756.

For this assay, the target named is ubiquitin (15N-Ub) (UniProt P0CG48). Briefly: NMR titration.

In turn, “V domain of S. castelli Bro1 (domain or fragment)” registered a Kd relative to the V domains of Alix and HD-PTP (~50 μM) of 5 fold.
